Test results published in patent US20220023399A1, “BLOOD COMPONENT POTENTIATION OF LYTIC PROTEIN ANTI-BACTERIAL ACTIVITY AND METHODS AND USES THEREOF” (priority 2017, published 2022).
Several values for one entry are separate records, joined by “and”; a condition that tells them apart may be missing. Equal values may be shown once.

Key:
[1] = tested on: S. aureus HPV 107 (MRSA); experiment: Checkerboard assay, additional MRSA strains; assay type: cell-based; details: paired agent not given
[2] = tested on: S. aureus strain MW2; experiment: Transmission electron microscopy of lytic activity; assay type: cell-based
Protocol: FIG. 13 depicts TEM analysis of S. aureus strain MW2 treated with PlySs2 (CF-301) in either human serum (HuS) or MHB for 15 minutes.
Staphylococci were treated with a range of PlySs2 (CF-301) concentrations for […] in either human serum or MHB before analysis by transmission electron microscopy (TEM). […] In addition to the more rapid bacteriolysis in serum, the lytic event was visually different in comparison to the event in MHB. In human serum, all bacteria are encased in a proteinaceous sheath presumably consisting of host proteins including HSA. […] In contrast, the lytic event in MHB appears as the classic cytoplasmic membrane bubbling and extrusion just prior to lysis.
Electron Microscopy. Mid-log phase strain MW2 growing in either CAMHB or human serum (Sigma-Aldrich) was treated with the indicated concentrations of PlySs2 (CF-301) or buffer alone (control) at 37° C. for 15 minutes. The cells were then washed with 1× phosphate buffer (PB) and resuspended in a solution of 4% paraformaldehyde and 2% glutaraldehyde in 0.1 M cacodylate buffer (pH 7.4). The samples were post-fixed in 1% osmium tetroxide, block stained with uranyl acetate, and processed according to standard procedures by The Rockefeller University Electron Microscopy Service. Samples were visualized using a Tecnai™ Spirit BT Transmission Electron Microscope (FEI). […]

[3] = tested on: S. aureus strain MW2; experiment: Synergy time-kill assay; assay type: cell-based; details: human serum
[4] = clinical grade, recombinant from E. coli; cited from earlier work
[5] = tested on: S. aureus CAIRD 456 (MRSA); experiment: Checkerboard assay, additional MRSA strains; assay type: cell-based; details: paired agent not given
[6] = tested on: S. aureus strain MW2; experiment: Lytic assay (loss of optical density) and specific activity
[7] = tested on: S. aureus strain MW2; details: CAMHB (Schuch 2014); cited from earlier work
[8] = tested on: methicillin-resistant S. aureus (MRSA) strain MW2; experiment: Time-kill assay in blood matrices and MHB; assay type: cell-based
[9] = tested on: S. aureus ATCC 43300 (MRSA); experiment: Checkerboard assay, additional MRSA strains; assay type: cell-based; details: paired agent not given
[10] = tested on: S. aureus JMI 227 (MRSA); experiment: Checkerboard assay, additional MRSA strains; assay type: cell-based; details: paired agent not given
[11] = tested on: S. aureus strain MW2; experiment: MIC by broth microdilution in human blood matrices and animal sera; assay type: cell-based; details: for PlySs2/CF-301 MIC: different lots
Protocol: FIG. 5 provides PlySs2 (CF-301) MIC distribution for S. aureus MW2 in different human blood matrices. […] Each sample is described in Supplementary Table 1. The MICs are plotted on the x axis, and the numbers of patient samples with particular MICs are plotted on the y axis.
To understand whether variation in the sources of human blood-derived matrices may impact activity, PlySs2 (CF-301) MICs were determined using an array of 62 different pooled and individual human donor samples of whole blood, serum and plasma from different commercial sources with variations in age, sex, blood type, and type of anticoagulant used. […] Histograms showing MIC frequencies for each of the different matrices indicate that activity in whole blood and serum is equivalent, while activity in plasma differs by ˜1-log 2 dilution (FIG. 5). Overall, the enhancer effect was not impacted by variations in the age, sex, and blood type of individual or pooled donors or by the use of sodium citrate or sodium heparin as anticoagulants (TABLE 3). The effect was also observed in complement-inactivate media, complement preserved media, and was equivalent in at least 3 different matched sets of human blood, serum and plasma fractions, while delipidated serum was not equivalent.
The impact of sample variation on PlySs2 (CF-301) activity in the serum of different animal species was also examined.

[12] = tested on: S. aureus JMI 4789 (MRSA); experiment: Checkerboard assay, additional MRSA strains; assay type: cell-based; details: paired agent not given
[13] = tested on: S. aureus (strain not given); experiment: MIC analysis of various lysins, chimeric lysins and antibiotics in MHB and human serum; assay type: cell-based; details: Table 14 (Example 2)
Protocol: To further evaluate the binding domain relevance to the serum component effect, various chimerics were constructed by replacing or swapping out one binding domain for another. Chimeric lysins having the Sal1 CHAP catalytic domain with ClyS binding domain, PlySs2 (CF-301) binding domain, or lysostaphin binding domain were assayed for MIC using MHB versus human serum. the results are depicted below in TABLE 14.

[14] = tested on: S. aureus (strain not given); experiment: as above; assay type: cell-based; details: Table 2
[15] = tested on: S. aureus JMI 1280 (MRSA); experiment: Checkerboard assay, additional MRSA strains; assay type: cell-based; details: paired agent not given
[16] = medium head missing (human serum)
[17] = human whole blood (n=13), serum (n=33) and plasma (n=15) samples

B1: PlySs2 (CF-301): antistaphylococcal lysin from a Streptococcus suis prophage; N-terminal CHAP domain, C-terminal SH3-type binding domain; SEQ ID NO:3 (protein, listed as Streptococcus suis)
chain: MTTVNEALNNVRAQVGSGVSVGNGECYALASWYERMISPDATVGLGAGVGWVSGAIGDTISAKNIGSSYNWQANGWTVSTSGPFKAGQIVTLGATPGNPYGHVVIVEAVDGDRLTILEQNYGGKRYPVRNYYSAASYRQQVVHYITPPGTVAQSAPNLAGSRSYRETGTMTVTVDALNVRRAPNTSGEIVAVYKRGESFDYDTVIIDVNGYVWVSYIGGSGKRNYVATGATKDGKRFGNAWGTFK
Molecule B1 has a ΣFICavg ([1]; CAMHB) of 0.64, a ΣFICmin ([1]; CAMHB) of 0.5 and a ΣFICavg [1, 16] of 0.44. The ΣFICmin [1, 16] was 0.38, the “concentration at which bacteriolytic activity was observed by TEM (only the highest tested)” value ([2]; MHB) was 5 µg/mL and the “bacteriolysis observed by TEM” value ([2]; human serum, all concentrations over a 100-fold range) was “widespread evidence of lysis”. The “concentration of each agent in PlySs2 (CF-301) + lysostaphin combination sterilizing at 24 hours” value [3] was 0.005 µg/mL, the “minimum concentration demonstrating synergy with daptomycin” value [3] was 0.025 µg/mL and the “fold decrease in minimum sterilizing concentration vs single agent” value ([3]; in combination with DAP) was 64 fold. For the same molecule, the “pH range over which active” value [4] was 6-9.7 pH, the “temperature range over which active” value [4] was 16-55 °C and the ΣFICavg ([5]; CAMHB) was 0.75. The ΣFICmin ([5]; CAMHB) was 0.5, the ΣFICavg [5, 16] was 0.44 and the ΣFICmin [5, 16] was 0.38. The “Fold increase in specific activity” value ([6]; supplement HuLYZ, 10 μg/mL) was 9.8, the “Fold increase in specific activity” value ([6]; supplement rHSA, 4%) was 17.8 and the “Fold increase in specific activity” value ([6]; supplements rHSA, HuLYZ) was 25. For the same molecule, the “minimum concentration required for synergy with daptomycin” value [7] was 4 µg/mL, the minimum sterilizing concentration ([8]; MHB) was 320 µg/mL and the minimum sterilizing concentration ([8]; all human blood matrices (whole blood, serum, plasma), sterilizing by 24 hours) was 3.2 µg/mL. The sterilizing concentration ([8]; calf serum) was 32 µg/mL, the sterilizing concentration ([8]; dog serum) was 3.2 µg/mL and the sterilizing concentration ([8]; mouse serum) was > 320 µg/mL. The sterilizing concentration ([8]; rabbit serum) was 3.2 µg/mL, the sterilizing concentration ([8]; rat serum) was 32 µg/mL and the “difference in sterilizing activity/potency, blood compared to MHB” value ([8]; strain MW2, human blood matrices vs MHB) was 100 fold. It also gave a ΣFICavg ([9]; CAMHB) of 0.87, a ΣFICmin ([9]; CAMHB) of 0.5 and a ΣFICavg [9, 16] of 0.29. It also gave a ΣFICmin [9, 16] of 0.25, a ΣFICavg ([10]; CAMHB) of 0.64 and a ΣFICmin ([10]; CAMHB) of 0.5. For the same molecule, the ΣFICavg [10, 16] was 0.29, the ΣFICmin [10, 16] was 0.25 and the MIC ([11]; AST medium) was “^$$MIC AST medium: 0.5 μg/mL”. For the same molecule, the “PlySs2/CF-301 MIC” value ([11]; dog serum (undiluted)) was 1 µg/mL and 0.5 µg/mL, the MIC ([11]; human serum, delipidized, pooled lots) was 64 and the MIC90 [11, 17] was 1 µg/mL. For the same molecule, the MIC Range [11, 17] was 0.5 to 2 µg/mL, the “PlySs2/CF-301 MIC” value ([11]; mouse serum (undiluted)) was 32 µg/mL and 64 µg/mL and the “PlySs2/CF-301 MIC” value ([11]; rabbit serum (undiluted)) was 1 µg/mL. The “PlySs2/CF-301 MIC” value ([11]; rat serum (undiluted)) was 8 µg/mL, the ΣFICavg ([12]; CAMHB) was 0.64 and the ΣFICmin ([12]; CAMHB) was 0.5. For the same molecule, the ΣFICavg [12, 16] was 0.29, the ΣFICmin [12, 16] was 0.25 and the “Minimal inhibitory concentration, MHB” value ([13]; MHB) was 32 µg/mL. The “Fold decrease in MIC” value ([13]; human serum vs MHB) was 32, the “Minimal inhibitory concentration, Human serum” value ([13]; human serum) was 1 µg/mL and the “Minimal inhibitory concentration, MHB” value ([14]; MHB) was 32 µg/mL. For the same molecule, the “Fold decrease in MIC” value ([14]; human serum vs MHB) was 32, the “Minimal inhibitory concentration, Human serum” value ([14]; human serum) was 1 µg/mL and the ΣFICavg ([15]; CAMHB) was 0.57. It also gave a ΣFICmin ([15]; CAMHB) of 0.5, a ΣFICavg [15, 16] of 0.29 and a ΣFICmin [15, 16] of 0.25.
